Assay results reported in US9988428B2, “Pegylated bioactive peptides and uses thereof” (GRIFFON PHARMACEUTICALS INC., priority 2016, dated 2018).
Non-standard residues stand in square brackets, D forms with d. No end group written: not given here. hArg = N=C(N)NCCCC[C@H](N)C(=O)O; Orn = NCCC[C@H](N)C(=O)O

How the values were obtained:
human GHRH receptor = target: T1, human GHRH receptor (Homo sapiens, UniProt Q02643); test: Hit Hunter (DiscoveRx) cAMP agonist assay in cells expressing GHRH receptor; assay type: cell-based; conditions: for In vitro potency / biological activity (in words): effect of Cys-PEG substitution compared with native peptide
T1 sequence (Q02643 23-423): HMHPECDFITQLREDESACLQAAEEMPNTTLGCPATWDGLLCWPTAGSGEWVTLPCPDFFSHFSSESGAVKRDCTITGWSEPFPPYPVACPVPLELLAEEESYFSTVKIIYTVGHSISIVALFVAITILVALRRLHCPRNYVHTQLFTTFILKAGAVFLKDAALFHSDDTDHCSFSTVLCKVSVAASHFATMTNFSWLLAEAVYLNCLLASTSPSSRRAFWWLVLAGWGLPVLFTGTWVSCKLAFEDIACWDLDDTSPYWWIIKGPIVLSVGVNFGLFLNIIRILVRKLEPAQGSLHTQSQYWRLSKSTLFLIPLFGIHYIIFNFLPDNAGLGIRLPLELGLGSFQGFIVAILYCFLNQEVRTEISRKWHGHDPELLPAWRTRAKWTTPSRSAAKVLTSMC
Protocol: For agonist determination, cells were incubated with sample to induce response. Media was aspirated from cells and replaced with 15 μL 2:1 HBSS/10 mM Hepes: cAMP XS+Ab reagent. […] Vehicle concentration was 1%. After appropriate compound incubation, assay signal was generated through incubation with 20 μL cAMP XS+ED/CL lysis cocktail for one hour followed by incubation with 20 μL cAMP XS+EA reagent for three hours at room temperature. Microplates were read following signal generation with a PerkinElmer Envision™ instrument for chemiluminescent signal detection. Compound activity was analyzed using CBIS data analysis suite (ChemInnovation, CA).

Growth Hormone secretion = test: GH release after subcutaneous injection of GHRH analogs in Sprague-Dawley rats (plasma GH ELISA); assay type: in vivo; conditions: female rats; for Growth hormone AUC (0-90 min): single subcutaneous dose 0.04 mg/kg, plasma GH, FIG. 1
From the text: Sprague-Dawley rats (female, weighing from 250 to 300 g) were obtained from Charles River Inc. Animals were used according to a protocol of the Animal Care Committee along with the principles of the Guide for the Care and Use of Experimental Animals of the Canadian Council on Animal Care. The animals were maintained on standard laboratory chow under a 12:12 light:dark cycle. They were kept in groups of 4 rats per cage. The animals were anesthetized with isoflurane 2.5%. A mid-section opening was made in the neck to expose the carotid artery. The carotid artery was canulated with polypropylene tubing (PE-50) to allow blood withdrawal. After surgical preparation, rats received a subcutaneous injection of GHRH analog (10-100 μg/kg) dissolved in 20 mM AcONa+5% mannitol at pH 5). Blood samples (400 μL/time point) were collected from 2-4 animals per group. […] Blood was collected into microtainer tubes containing K3EDTA, mixed and immediately centrifuged at 13,000 RPM in a desktop centrifuge for 2 minutes. The plasma was collected and placed into a screw cap Eppendorf™ tube and quickly frozen in liquid nitrogen. The samples were then kept at −80° C. until assayed. Determination of GH levels was performed as described below.
Rat and mouse plasma samples were vortexed carefully and centrifuged at 9,000 RPM for 2 min at 4° C. […] The remainder of the procedure was performed according to the manufacturer's instructions, and the data obtained were analyzed using GraphPad Prism™ software. […] Growth hormone levels were determined in timed-aliquots of blood and are depicted in FIG. 1. […]
The N-terminal part of the GHRH peptide is known to be buried in the extracellular loops and transmembrane domains of the GHRH receptor, and thus almost all of the amino acids in the N-terminal domain participate in high affinity binding of the GHRH peptide to the receptor. […] Briefly, peptides (0.04 mg/kg) were subcutaneously injected in female rats and growth hormone levels were determined in timed aliquots of blood drawn from the animals.

Molecule: YaDAIFTAC(Peg-5K)YROVLAQLSAROALQDILS(Har)-NH2 (Y[dA]DAIFTACYR[Orn]VLAQLSAR[Orn]ALQDILS[hArg]-NH2; not fully specified (residue 9); printed as YaDAIFTAC(Peg-5K)YROVLAQLSAROALQDILS(Har)-NH2) [Analog 15, GHRH analog, 5K PEG on Cys9, C-terminal Har-NH2]
- In vitro potency / biological activity (in words) (human GHRH receptor): without loss of in vitro biological activity

Molecule: CC[C@H](C)[C@H](NC(=O)[C@H](C)NC(=O)[C@H](CC(=O)O)NC(=O)[C@H](C)NC(=O)[C@@H](N)Cc1ccc(O)cc1)C(=O)N[C@@H](Cc1ccccc1)C(=O)N[C@H](C(=O)N[C@@H](CC(N)=O)C(=O)N[C@@H](CO)C(=O)N[C@@H](Cc1ccc(O)cc1)C(=O)N[C@@H](CCCNC(=N)N)C(=O)N[C@@H](CCCCN)C(=O)N[C@H](C(=O)N[C@@H](CC(C)C)C(=O)NCC(=O)N[C@@H](CCC(N)=O)C(=O)N[C@@H](CC(C)C)C(=O)N[C@@H](CO)C(=O)N[C@@H](C)C(=O)N[C@@H](CCCNC(=N)N)C(=O)N[C@@H](CCCCN)C(=O)N[C@@H](CC(C)C)C(=O)N[C@@H](CC(C)C)C(=O)N[C@@H](CCC(N)=O)C(=O)N[C@@H](CC(=O)O)C(=O)N[C@H](C(=O)N[C@@H](CCSC)C(=O)N[C@@H](CO)C(=O)N[C@@H](CCCNC(=N)N)C(N)=O)[C@@H](C)CC)C(C)C)[C@@H](C)O [GHRH1-29, reference compound]
- Max. response (%) (human GHRH receptor; Table 3, independent experiment): 112.97%

Molecule: YaDAIFTASYROVLAQLSC(Peg-2K)ROALQDILSKN-NH2 (Y[dA]DAIFTASYR[Orn]VLAQLSC(PEG 2 kDa)R[Orn]ALQDILSKN-NH2) [Analog 4, GHRH analog, Cys conjugated to about 2 kDa PEG at position 19]
- In vitro potency / biological activity (in words) (human GHRH receptor): reduced potency

Molecule: YaDAIFTAC(Peg-40K)YROVLAQLSAROALQDILS(Har)-NH2 (Y[dA]DAIFTAC(PEG 40 kDa)YR[Orn]VLAQLSAR[Orn]ALQDILS[hArg]-NH2) [Analog 16, GHRH analog, about 40 kDa PEG on Cys9, C-terminal Har-NH2]
- In vitro potency / biological activity (in words) (human GHRH receptor): without loss of in vitro biological activity

Molecule: YaDAIFTASYROVLAQLSAROALQDILC(Peg-2K)KN-NH2 (Y[dA]DAIFTASYR[Orn]VLAQLSAR[Orn]ALQDILC(PEG 2 kDa)KN-NH2) [Analog 1, GHRH analog, Cys conjugated to about 2 kDa PEG at position 28]
- Stimulation of GH secretion (in words) (Growth Hormone secretion; subcutaneous 0.04 mg/kg, FIG. 1 / FIG. 2): potently stimulated GH secretion

Molecule: YaDAIFTC(Peg-2K)SYROVLAQLSAROALQDILSKN-NH2 (Y[dA]DAIFTC(PEG 2 kDa)SYR[Orn]VLAQLSAR[Orn]ALQDILSKN-NH2) [Analog 7, GHRH analog, Cys conjugated to about 2 kDa PEG at position 8]
- In vitro potency / biological activity (in words) (human GHRH receptor): reduced potency
- Growth hormone AUC (0-90 min) (Growth Hormone secretion): 15657 ng/ml/90 min

Molecule: YaDAIFTASYROVLAC(Peg-2K)LSAROALQDILSKN-NH2 (Y[dA]DAIFTASYR[Orn]VLAC(PEG 2 kDa)LSAR[Orn]ALQDILSKN-NH2) [Analog 9, GHRH analog, Cys conjugated to about 2 kDa PEG at position 16]
- In vitro potency / biological activity (in words) (human GHRH receptor): reduced potency

Molecule: YaDAIFTAC(Peg-2K)YROVLAQLSAROALQDILS-(Har)-NH2 (Y[dA]DAIFTAC(PEG 2 kDa)YR[Orn]VLAQLSAR[Orn]ALQDILS[hArg]-NH2) [Analog 10, GHRH analog, about 2 kDa PEG on Cys9, C-terminal Har-NH2]
- Fold more potent than the native peptide (human GHRH receptor; Table 3 experiment, versus GHRH1-29): ~14 fold

Molecule: YaDAIFTASYROVLAQLSAROALQDC(Peg-2K)LSKN-NH2 (Y[dA]DAIFTASYR[Orn]VLAQLSAR[Orn]ALQDC(PEG 2 kDa)LSKN-NH2) [Analog 8, GHRH analog, Cys conjugated to about 2 kDa PEG at position 26]
- In vitro potency / biological activity (in words) (human GHRH receptor): reduced potency

Molecule: YaDAIFTAC(Peg-2K)YROVLAQLSAROALQDILSKN-NH2 (Y[dA]DAIFTAC(PEG 2 kDa)YR[Orn]VLAQLSAR[Orn]ALQDILSKN-NH2) [Analog 6, GHRH analog, Cys conjugated to about 2 kDa PEG at position 9]
- Growth hormone AUC (0-90 min) (Growth Hormone secretion): 29075 ng/ml/90 min

Molecule: YaDAIFTASYROVLC(Peg-2K)QLSAROALQDILSKN-NH2 (Y[dA]DAIFTASYR[Orn]VLC(PEG 2 kDa)QLSAR[Orn]ALQDILSKN-NH2) [Analog 5, GHRH analog, Cys conjugated to about 2 kDa PEG at position 15]
- In vitro potency / biological activity (in words) (human GHRH receptor): reduced potency
